How the values were obtained:
[1] = target: H1 histone
[2] = target: myelin basic protein
[3] = target: T1, GST-ATF2
T1 sequence (P15336 whole entry, species assumed, looked up): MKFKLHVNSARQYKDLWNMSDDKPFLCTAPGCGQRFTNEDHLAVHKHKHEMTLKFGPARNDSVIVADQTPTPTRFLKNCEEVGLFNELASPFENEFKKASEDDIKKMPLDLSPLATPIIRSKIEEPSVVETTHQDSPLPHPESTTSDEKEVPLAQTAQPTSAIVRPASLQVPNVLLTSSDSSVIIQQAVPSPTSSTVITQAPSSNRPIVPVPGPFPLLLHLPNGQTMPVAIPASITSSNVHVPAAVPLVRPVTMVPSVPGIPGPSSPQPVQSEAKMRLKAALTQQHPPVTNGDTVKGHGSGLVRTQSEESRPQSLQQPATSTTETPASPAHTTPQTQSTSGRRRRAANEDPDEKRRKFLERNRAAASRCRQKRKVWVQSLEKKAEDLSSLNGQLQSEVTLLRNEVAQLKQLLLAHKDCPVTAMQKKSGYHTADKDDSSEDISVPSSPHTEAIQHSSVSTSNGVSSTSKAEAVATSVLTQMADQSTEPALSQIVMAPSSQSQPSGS

[4] = target: Phas-1 (4E-BP-1)

Measured: in vitro kinase assay with gamma-32P ATP: phosphorylation of heterologous substrate

Chain of myelin basic protein (P02687 whole entry): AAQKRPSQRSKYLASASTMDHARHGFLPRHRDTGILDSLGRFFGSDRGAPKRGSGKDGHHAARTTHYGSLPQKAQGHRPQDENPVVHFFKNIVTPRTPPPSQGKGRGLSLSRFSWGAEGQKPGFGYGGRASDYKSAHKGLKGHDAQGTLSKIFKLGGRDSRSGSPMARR

B1: GST-CARK-KD fusion protein (CARK kinase domain, amino acid residues 424 to 835 of SEQ ID NO:2) (protein)
chain: SYVSVPSPLGKIKSMTKEKADILLLRAGLPSHFHLQLSEIEFHEIIGSGSFGKVYKGRCRNKIVAIKRYRANTYCSKSDVDMFCREVSILCQLNHPCVIQFVGACLNDPSQFAIVTQYISGGSLFSLLHEQKRILDLQSKLIIAVDVAKGMEYLHNLTQPIIHRDLNSHNILLYEDGHAVVADFGESRFLQSLDEDNMTKQPGNLRWMAPEVFTQCTRYTIKADVFSYALCLWEILTGEIPFAHLKPAAAAADMAYHHIRPPIGYSIPKPISSLLIRGWNACPEGRPEFSEVVMKLEECLCNIELMSPASSNSSGSLSPSSSSDCLVNRGGPGRSHVAALRSRFELEYALNARSYAALSQSAGQYSSQGLSLEEMKRSLQYTPIDKYGYVSDPMSSMHFHSCRNSSSFEDSS
phosphorylated: all assays above

B2: GST-CARK fusion protein (full length human CARK) (protein)
chain: MGNYKSRPTQTCTDEWKKKVSESYVITIERLEDDLQIKEKELTELRNIFGSDEAFSKVNLNYRTENGLSLLHLCCICGGKKSHIRTLMLKGLRPSRLTRNGFTALHLAVYKDNAELITSLLHSGADIQQVGYGGLTALHIATIAGHLEAADVLLQHGANVNIQDAVFFTPLHIAAYYGHEQVTRLLLKFGADVNVSGEVGDRPLHLASAKGFLNIAKLLMEEGSKADVNAQDNEDHVPLHFCSRFGHHDIVKYLLQSDLEVQPHVVNIYGDTPLHLACYNGKFEVAKEIIQISGTESLTKENIFSETAFHSACTYGKSIDLVKFLLDQNVININHQGRDGHTGLHSACYHGHIRLVQFLLDNGADMNLVACDPSRSSGEKDEQTCLMWAYEKGHDAIVTLLKHYKRPQDELPCNEYSQPGGDGSYVSVPSPLGKIKSMTKEKADILLLRAGLPSHFHLQLSEIEFHEIIGSGSFGKVYKGRCRNKIVAIKRYRANTYCSKSDVDMFCREVSILCQLNHPCVIQFVGACLNDPSQFAIVTQYISGGSLFSLLHEQKRILDLQSKLIIAVDVAKGMEYLHNLTQPIIHRDLNSHNILLYEDGHAVVADFGESRFLQSLDEDNMTKQPGNLRWMAPEVFTQCTRYTIKADVFSYALCLWEILTGEIPFAHLKPAAAAADMAYHHIRPPIGYSIPKPISSLLIRGWNACPEGRPEFSEVVMKLEECLCNIELMSPASSNSSGSLSPSSSSDCLVNRGGPGRSHVAALRSRFELEYALNARSYAALSQSAGQYSSQGLSLEEMKRSLQYTPIDKYGYVSDPMSSMHFHSCRNSSSFEDSS
phosphorylated: all assays above

— patent US20020127684
